Among the data in article PMC6358605 are response and other: K1/2 max values, retold here.

The assay addresses biotinylated AviTag-BiP^19–413 (NBD), G3I8R9. The assay is described as follows: BLI. To be noted: chain shown with the change; for response: equilibrium signal, read off a plot; for other: K1/2 max: streptavidin biosensors loaded with biotinylated BiP NBD, equilibrium signal vs [MANF] 0-100 µM, parent: 13.9.

Residue numbers refer to the chain shown, from its start. Names and notes keep the numbering of the source.

biotinylated AviTag-BiP^19–413 (NBD), G3I8R9, sequence (G3I8R9 19-413): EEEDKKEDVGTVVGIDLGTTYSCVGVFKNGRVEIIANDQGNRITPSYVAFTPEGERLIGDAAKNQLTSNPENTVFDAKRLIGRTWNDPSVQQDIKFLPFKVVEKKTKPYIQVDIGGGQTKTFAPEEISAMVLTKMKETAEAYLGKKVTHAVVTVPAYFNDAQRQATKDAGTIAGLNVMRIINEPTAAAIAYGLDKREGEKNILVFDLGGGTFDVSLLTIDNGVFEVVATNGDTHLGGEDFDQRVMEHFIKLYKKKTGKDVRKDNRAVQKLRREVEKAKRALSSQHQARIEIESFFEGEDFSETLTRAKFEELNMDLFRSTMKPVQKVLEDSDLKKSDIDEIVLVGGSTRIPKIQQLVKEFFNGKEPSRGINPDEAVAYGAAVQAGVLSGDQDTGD

B1: Full-length mouse MANF (wild-type), Q9CXI5 E153A (protein)
chain: LRPGDCEVCISYLGRFYQDLKDRDVTFSPATIEEELIKFCREARGKENRLCYYIGATDDAATKIINEVSKPLAHHIPVEKICEKLKKKDSQICELKYDKQIDLSTVDLKKLRVKELKKILDDWGEMCKGCAAKSDYIRKINELMPKYAPKAASARTDL
Regarding B1, the response worked out at 0.17 nm (50 µM MANF, parent: est. 0.68) and 0.24 nm (100 µM MANF, parent: est. 0.78).

B2: Full-length mouse MANF (wild-type), Q9CXI5 R23A (protein)
chain: B1 chain with R2A, K99N, A132E
Regarding B2, the response by setting is: (50 µM MANF, parent: est. 0.68) 0.52 nm; (100 µM MANF, parent: est. 0.78) 0.58 nm. Further, the other: K1/2 max (R2 0.978) was 15.3 µM.

B3: Full-length mouse MANF (wild-type), Q9CXI5 K138A (protein)
chain: B1 chain with K99N, K117A, A132E
As for B3, the response was 0.3 nm (50 µM MANF, parent: est. 0.68) and 0.42 nm (100 µM MANF, parent: est. 0.78). Also, the other: K1/2 max (R2 0.913) came to 31 µM.

B4: Full-length mouse MANF (wild-type), Q9CXI5 R133E (protein)
chain: B1 chain with R112E, A132E
With B4, the response is, setting by setting: (50 µM MANF, parent: est. 0.68) 0.1 nm; (100 µM MANF, parent: est. 0.78) 0.13 nm.
